Results as given in paper PMC9482650, “Quantitative fragmentomics allow affinity mapping of interactomes” (Nature Communications, 2022).

T1: NHERF3_3, Q5T2W1
T1 sequence (Q5T2W1 238-333, limits assumed, looked up): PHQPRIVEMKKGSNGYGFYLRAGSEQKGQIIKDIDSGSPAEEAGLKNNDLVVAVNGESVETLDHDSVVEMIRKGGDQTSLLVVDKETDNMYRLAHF

T2: GRIP1_5, Q9Y3R0
T2 sequence (Q9Y3R0 568-668, limits assumed, looked up): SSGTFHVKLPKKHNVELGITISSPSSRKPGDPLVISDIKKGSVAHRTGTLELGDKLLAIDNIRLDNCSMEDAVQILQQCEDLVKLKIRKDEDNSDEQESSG

T3: DLG3_3, Q92796
T3 sequence (Q92796 374-475, limits assumed, looked up): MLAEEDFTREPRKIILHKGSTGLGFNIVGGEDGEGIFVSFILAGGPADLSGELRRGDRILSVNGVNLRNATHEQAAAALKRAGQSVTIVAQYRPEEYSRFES

T4: APBA2_1, Q99767
T4 sequence (Q99767 563-664, limits assumed, looked up): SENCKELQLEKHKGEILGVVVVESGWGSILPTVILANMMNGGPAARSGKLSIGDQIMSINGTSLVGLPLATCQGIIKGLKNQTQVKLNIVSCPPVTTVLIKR

T5: APBA2_2, Q99767
T5 sequence (Q99767 654-744, limits assumed, looked up): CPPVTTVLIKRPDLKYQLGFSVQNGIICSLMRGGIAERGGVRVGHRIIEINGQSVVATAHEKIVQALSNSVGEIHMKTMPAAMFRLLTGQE

T6: APBA1_1, Q02410
T6 sequence (Q02410 651-752, limits assumed, looked up): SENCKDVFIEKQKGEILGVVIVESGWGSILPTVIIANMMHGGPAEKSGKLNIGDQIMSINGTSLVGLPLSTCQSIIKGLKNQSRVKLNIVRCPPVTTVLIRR

T7: MPDZ_5, O75970
T7 sequence (O75970 695-796, limits assumed, looked up): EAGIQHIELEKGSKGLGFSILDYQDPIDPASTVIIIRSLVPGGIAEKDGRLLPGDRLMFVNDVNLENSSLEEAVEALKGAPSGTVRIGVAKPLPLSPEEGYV

T8: ARHGEF11, O15085
T8 sequence (O15085 42-136, limits assumed, looked up): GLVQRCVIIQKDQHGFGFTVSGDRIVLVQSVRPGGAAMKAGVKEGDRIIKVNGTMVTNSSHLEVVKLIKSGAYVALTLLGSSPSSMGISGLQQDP

T9: MPP2, Q14168
T9 sequence (Q14168 180-250, limits assumed, looked up): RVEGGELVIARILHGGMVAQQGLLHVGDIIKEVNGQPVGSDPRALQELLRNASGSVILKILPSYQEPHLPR

T10: SNTB1, Q13884
T10 sequence (Q13884 107-205, limits assumed, looked up): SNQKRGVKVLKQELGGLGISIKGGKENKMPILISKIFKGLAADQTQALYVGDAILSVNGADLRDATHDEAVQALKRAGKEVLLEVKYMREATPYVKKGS

T11: DFNB31_1, Q9P202
T11 sequence (Q9P202 135-233, limits assumed, looked up): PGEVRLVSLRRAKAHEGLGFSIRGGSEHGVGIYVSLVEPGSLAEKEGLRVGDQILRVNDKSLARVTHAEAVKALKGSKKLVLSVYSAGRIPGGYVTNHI

T12: GRIP1_2, Q9Y3R0
T12 sequence (Q9Y3R0 145-248, limits assumed, looked up): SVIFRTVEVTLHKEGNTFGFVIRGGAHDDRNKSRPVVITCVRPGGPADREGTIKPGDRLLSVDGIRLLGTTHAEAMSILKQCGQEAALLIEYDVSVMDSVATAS

B1: NDE1, Q9NXR1;Q9NXR1-2 (peptide)
chain: KSTTRSSSSC
B2: LSM14A, Q8ND56;Q8ND56-2 (peptide)
chain: EYRKDNKVAA
B3: VAC14, Q08AM6 (peptide)
chain: GDHLDRRVVL

molecular target: T1, NHERF3_3, Q5T2W1; experiment: holdup assay; set-up: key: below the threshold = too weak to quantify, mostly under pKd 3.1 to 4; settings: plain residues with an end cap or a label only (N-terminal biotin on a linker: ado-ado)

pKd	Binder
below the threshold	B1
below the threshold	B2
below the threshold	B3

molecular target: IL16_1, Q14005; experiment: holdup assay; set-up: key: below the threshold = too weak to quantify, mostly under pKd 3.1 to 4; settings: plain residues with an end cap or a label only (N-terminal biotin on a linker: ado-ado)
Sequence (Q14005 210-306): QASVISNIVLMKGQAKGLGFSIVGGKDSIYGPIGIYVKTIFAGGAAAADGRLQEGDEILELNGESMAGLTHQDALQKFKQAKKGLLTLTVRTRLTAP

pKd	Binder
below the threshold	B1
below the threshold	B2
below the threshold	B3

molecular target: T2, GRIP1_5, Q9Y3R0; experiment: holdup assay; set-up: key: below the threshold = too weak to quantify, mostly under pKd 3.1 to 4; settings: plain residues with an end cap or a label only (N-terminal biotin on a linker: ado-ado)

pKd	Binder
below the threshold	B1
below the threshold	B3

molecular target: T3, DLG3_3, Q92796; experiment: holdup assay; set-up: key: below the threshold = too weak to quantify, mostly under pKd 3.1 to 4; settings: plain residues with an end cap or a label only (N-terminal biotin on a linker: ado-ado)

pKd	Binder
below the threshold	B1
below the threshold	B2
below the threshold	B3

molecular target: T4, APBA2_1, Q99767; experiment: holdup assay; set-up: key: below the threshold = too weak to quantify, mostly under pKd 3.1 to 4; settings: plain residues with an end cap or a label only (N-terminal biotin on a linker: ado-ado)

pKd	Binder
below the threshold	B1
below the threshold	B2
below the threshold	B3

molecular target: DLG1_3, Q12959; experiment: holdup assay; set-up: key: below the threshold = too weak to quantify, mostly under pKd 3.1 to 4; settings: plain residues with an end cap or a label only (N-terminal biotin on a linker: ado-ado)
Sequence (Q12959 457-571): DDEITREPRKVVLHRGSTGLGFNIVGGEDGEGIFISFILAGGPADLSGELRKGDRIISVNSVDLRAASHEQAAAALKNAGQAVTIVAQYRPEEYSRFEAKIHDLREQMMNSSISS

pKd	Binder
below the threshold	B1
below the threshold	B3

molecular target: T5, APBA2_2, Q99767; experiment: holdup assay; set-up: key: below the threshold = too weak to quantify, mostly under pKd 3.1 to 4; settings: plain residues with an end cap or a label only (N-terminal biotin on a linker: ado-ado)

pKd	Binder
below the threshold	B1
below the threshold	B2
below the threshold	B3

molecular target: LNX1_1, Q8TBB1; experiment: holdup assay; set-up: key: below the threshold = too weak to quantify, mostly under pKd 3.1 to 4; settings: plain residues with an end cap or a label only (N-terminal biotin on a linker: ado-ado)
Sequence (Q8TBB1 261-371): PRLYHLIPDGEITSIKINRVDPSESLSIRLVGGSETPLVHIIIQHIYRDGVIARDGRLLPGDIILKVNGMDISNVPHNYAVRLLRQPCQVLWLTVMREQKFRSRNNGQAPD

pKd	Binder
below the threshold	B1
below the threshold	B3

molecular target: GORASP2, Q9H8Y8; experiment: holdup assay; set-up: key: below the threshold = too weak to quantify, mostly under pKd 3.1 to 4; settings: plain residues with an end cap or a label only (N-terminal biotin on a linker: ado-ado)

pKd	Binder
below the threshold	B1
3.87	B3

molecular target: TJP1_3, Q07157; experiment: holdup assay; set-up: key: below the threshold = too weak to quantify, mostly under pKd 3.1 to 4; settings: plain residues with an end cap or a label only (N-terminal biotin on a linker: ado-ado)
Sequence (Q07157 416-512): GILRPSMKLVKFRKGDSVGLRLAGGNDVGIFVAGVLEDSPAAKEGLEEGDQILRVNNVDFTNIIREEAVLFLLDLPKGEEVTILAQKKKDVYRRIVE

pKd	Binder
below the threshold	B1
below the threshold	B3

molecular target: DLG1_2, Q12959; experiment: holdup assay; set-up: key: below the threshold = too weak to quantify, mostly under pKd 3.1 to 4; settings: plain residues with an end cap or a label only (N-terminal biotin on a linker: ado-ado)
Sequence (Q12959 314-412): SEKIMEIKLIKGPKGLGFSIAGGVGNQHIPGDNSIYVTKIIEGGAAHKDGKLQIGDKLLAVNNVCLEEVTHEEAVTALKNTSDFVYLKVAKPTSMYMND

pKd	Binder
below the threshold	B1
below the threshold	B2
3.98	B3

molecular target: T6, APBA1_1, Q02410; experiment: holdup assay; set-up: key: below the threshold = too weak to quantify, mostly under pKd 3.1 to 4; settings: plain residues with an end cap or a label only (N-terminal biotin on a linker: ado-ado)

pKd	Binder
below the threshold	B1
below the threshold	B2
below the threshold	B3

molecular target: CASK, O14936; experiment: holdup assay; set-up: key: below the threshold = too weak to quantify, mostly under pKd 3.1 to 4; settings: plain residues with an end cap or a label only (N-terminal biotin on a linker: ado-ado)
Sequence (O14936 487-570): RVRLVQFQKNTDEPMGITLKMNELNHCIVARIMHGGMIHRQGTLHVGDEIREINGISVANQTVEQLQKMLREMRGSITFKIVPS

pKd	Binder
below the threshold	B1
below the threshold	B2
below the threshold	B3

molecular target: DLG4_1, P78352; experiment: holdup assay; set-up: key: below the threshold = too weak to quantify, mostly under pKd 3.1 to 4; settings: plain residues with an end cap or a label only (N-terminal biotin on a linker: ado-ado)
Sequence (P78352 62-152): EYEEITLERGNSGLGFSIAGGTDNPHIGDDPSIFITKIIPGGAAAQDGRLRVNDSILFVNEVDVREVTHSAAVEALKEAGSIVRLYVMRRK

pKd	Binder
below the threshold	B1
below the threshold	B2
below the threshold	B3

molecular target: T7, MPDZ_5, O75970; experiment: holdup assay; set-up: key: below the threshold = too weak to quantify, mostly under pKd 3.1 to 4; settings: plain residues with an end cap or a label only (N-terminal biotin on a linker: ado-ado)

pKd	Binder
below the threshold	B1
below the threshold	B2
below the threshold	B3

molecular target: T8, ARHGEF11, O15085; experiment: holdup assay; set-up: key: below the threshold = too weak to quantify, mostly under pKd 3.1 to 4; settings: plain residues with an end cap or a label only (N-terminal biotin on a linker: ado-ado)

pKd	Binder
below the threshold	B1
below the threshold	B2
below the threshold	B3

molecular target: LNX1_2, Q8TBB1; experiment: holdup assay; set-up: key: below the threshold = too weak to quantify, mostly under pKd 3.1 to 4; settings: plain residues with an end cap or a label only (N-terminal biotin on a linker: ado-ado)
Sequence (Q8TBB1 371-470): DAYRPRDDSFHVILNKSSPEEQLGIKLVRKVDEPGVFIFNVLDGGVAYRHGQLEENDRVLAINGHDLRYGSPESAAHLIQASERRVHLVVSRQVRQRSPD

pKd	Binder
below the threshold	B1
below the threshold	B2
below the threshold	B3

molecular target: GOPC, Q9HD26; experiment: holdup assay; set-up: key: below the threshold = too weak to quantify, mostly under pKd 3.1 to 4; settings: plain residues with an end cap or a label only (N-terminal biotin on a linker: ado-ado)

pKd	Binder
below the threshold	B1
below the threshold	B2
below the threshold	B3

molecular target: GRID2IP_2, A4D2P6; experiment: holdup assay; set-up: key: below the threshold = too weak to quantify, mostly under pKd 3.1 to 4; settings: plain residues with an end cap or a label only (N-terminal biotin on a linker: ado-ado)
Sequence (A4D2P6 272-370): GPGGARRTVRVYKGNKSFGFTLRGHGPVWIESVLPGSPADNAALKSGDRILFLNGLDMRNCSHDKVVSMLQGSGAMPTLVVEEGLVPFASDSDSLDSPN

pKd	Binder
below the threshold	B2
below the threshold	B3

molecular target: T9, MPP2, Q14168; experiment: holdup assay; set-up: key: below the threshold = too weak to quantify, mostly under pKd 3.1 to 4; settings: plain residues with an end cap or a label only (N-terminal biotin on a linker: ado-ado)

pKd	Binder
below the threshold	B1
below the threshold	B2
below the threshold	B3

molecular target: T10, SNTB1, Q13884; experiment: holdup assay; set-up: key: below the threshold = too weak to quantify, mostly under pKd 3.1 to 4; settings: plain residues with an end cap or a label only (N-terminal biotin on a linker: ado-ado)

pKd	Binder
below the threshold	B1
below the threshold	B2
below the threshold	B3

molecular target: FRMPD4, Q14CM0; experiment: holdup assay; set-up: key: below the threshold = too weak to quantify, mostly under pKd 3.1 to 4; settings: plain residues with an end cap or a label only (N-terminal biotin on a linker: ado-ado)
Sequence (Q14CM0 67-160): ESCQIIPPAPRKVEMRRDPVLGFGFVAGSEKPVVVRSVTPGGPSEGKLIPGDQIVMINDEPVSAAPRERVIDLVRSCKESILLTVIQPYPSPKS

pKd	Binder
below the threshold	B1
below the threshold	B2
3.82	B3

molecular target: T11, DFNB31_1, Q9P202; experiment: holdup assay; set-up: key: below the threshold = too weak to quantify, mostly under pKd 3.1 to 4; settings: plain residues with an end cap or a label only (N-terminal biotin on a linker: ado-ado)

pKd	Binder
below the threshold	B1
below the threshold	B2
below the threshold	B3

molecular target: NHERF4_4, Q86UT5; experiment: holdup assay; set-up: key: below the threshold = too weak to quantify, mostly under pKd 3.1 to 4; settings: plain residues with an end cap or a label only (N-terminal biotin on a linker: ado-ado)
Sequence (Q86UT5 464-550): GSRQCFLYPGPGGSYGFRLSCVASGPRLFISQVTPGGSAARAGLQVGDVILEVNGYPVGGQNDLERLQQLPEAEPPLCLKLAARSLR

pKd	Binder
below the threshold	B1
below the threshold	B2
3.78	B3

molecular target: IL16_3, Q14005; experiment: holdup assay; set-up: key: below the threshold = too weak to quantify, mostly under pKd 3.1 to 4; settings: plain residues with an end cap or a label only (N-terminal biotin on a linker: ado-ado)
Sequence (Q14005 1107-1207): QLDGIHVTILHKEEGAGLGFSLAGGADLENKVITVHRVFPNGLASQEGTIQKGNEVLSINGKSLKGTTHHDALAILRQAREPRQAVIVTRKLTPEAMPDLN

pKd	Binder
below the threshold	B1
3.58	B3

molecular target: T12, GRIP1_2, Q9Y3R0; experiment: holdup assay; set-up: key: below the threshold = too weak to quantify, mostly under pKd 3.1 to 4; settings: plain residues with an end cap or a label only (N-terminal biotin on a linker: ado-ado)

pKd	Binder
below the threshold	B1
below the threshold	B2
below the threshold	B3
